One series addresses F2615 (artificial (human zinc finger domains)). As to the kind of experiment: cell_activity; endogenous VEGF-A conc., unit not given; parental vector 400. As to conditions: tags: HA, NLS, p65.
The target of the next series is F480 (artificial (human zinc finger domains)). The series is described as above.
The next series has as its target F2605 (artificial (human zinc finger domains)). The description is as above. As to conditions: tags: HA, NLS, p65.
The target in the next series is F2607 (artificial (human zinc finger domains)). Kind of series: cell_activity; endogenous VEGF-A conc., unit inferred; parental vector 400. The note with it: tags: HA, NLS, p65.
Another series has as its target F2604 (artificial (human zinc finger domains)). As to the kind of experiment: cell_activity; endogenous VEGF-A conc., unit not given; parental vector 400. The note with it: tags: HA, NLS, p65.
Another series deals with F2638 (artificial (human zinc finger domains)). The description is as above. The note with it: tags: HA, NLS, p65.
The target in the next series is F2610 (artificial (human zinc finger domains)). Described as above. The note with it: tags: HA, NLS, p65.
The target of another series is F2644 (artificial (human zinc finger domains)). The series is described as above. The note with it: tags: HA, NLS, p65.
For another series, the target named is F109-KRAB (artificial (human zinc finger domains)). As to the kind of experiment: cell_activity; luciferase reporter with native VEGF promoter -950 to +450, 293 cells, 30 ng plasmid. As to conditions: tags: HA, NLS. On the procedure:
(§1) Human embryonic kidney 293 cells were maintained in Dulbecco's modified Eagle medium (DMEM) supplemented with 100 units/ml penicillin, 100 μg/ml streptomycin, and 10% fetal bovine serum (FBS). For the luciferase assay, 10⁴ cells/well were pre-cultured in a 96-well plate. Using a LIPOFECTAMINE™ transfection kit (Life Technologies, Rockville, Md.), 293 cells were transfected with 25 ng of a reporter plasmid in which the native VEGF-A promoter was fused to the luciferase gene in pGL3-basic (Promega), and 25 ng of a plasmid encoding a zinc finger protein. After 48 h of incubation, luciferase activity was measured with a DUAL LUCIFERASE™ assay kit (Promega) using a TD-20/20 luminometer (Turner Designs Inc., Sunnyvale, Calif.).
(§2) 293 cells were transfected with luciferase reporter plasmid pGL3-VEGFprom containing native human VEGF promoter(−950 to +450 from the transcription initiation site) and 30 ng of pLFD-F121-KRAB or pLFD-F109-KRAB. Luciferase activity was measured as described. Fold repression values were calculated by normalizing the firefly luciferase activity against the renilla luciferase activity and the result was compared with that of the control wherein 293 cells were transfected with the control vector pLFD and the reporter plasmid.

For a further series, the target named is F2612 (artificial (human zinc finger domains)). Kind of series: cell_activity; endogenous VEGF-A conc., unit inferred; parental vector 400. As to conditions: tags: HA, NLS, p65.
Another series concerns the target F2650 (artificial (human zinc finger domains)). Kind of series: cell_activity; endogenous VEGF-A conc., unit not given; parental vector 400. As to conditions: tags: HA, NLS, p65.
The target in the next series is F475 (artificial (human zinc finger domains)). Described as above.
The next series addresses F2646 (artificial (human zinc finger domains)). The description is as above. The note with it: tags: HA, NLS, p65.
The next series deals with F2634 (artificial (human zinc finger domains)). The description is as above. As to conditions: tags: HA, NLS, p65.
The target in another series is F121 (artificial (human zinc finger domains)). As to the kind of experiment: cell_activity; endogenous VEGF-A conc., unit inferred; parental vector 400.
The target of another series is F121-KRAB (artificial (human zinc finger domains)). Kind of series: cell_activity; luciferase reporter with native VEGF promoter -950 to +450, 293 cells, 30 ng plasmid. The note with it: tags: HA, NLS. On the procedure:
as §1, §2
For orientation: Reporter assays use an easily measured gene product as a stand-in for the process of interest.

A further series addresses F2679 (artificial (human zinc finger domains)). Kind of series: cell_activity; endogenous VEGF-A conc., unit inferred; parental vector 400. As to conditions: tags: HA, NLS, p65.
The next series concerns the target F2633 (artificial (human zinc finger domains)). Kind of series: cell_activity; endogenous VEGF-A conc., unit not given; parental vector 400. As to conditions: tags: HA, NLS, p65.

F2610 (artificial (human zinc finger domains)), sequence (chain, as listed by the source): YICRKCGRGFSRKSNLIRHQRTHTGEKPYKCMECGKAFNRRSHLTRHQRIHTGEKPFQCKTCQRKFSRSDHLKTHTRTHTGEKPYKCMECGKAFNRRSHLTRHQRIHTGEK
F2615 (artificial (human zinc finger domains)), sequence (chain, as listed by the source): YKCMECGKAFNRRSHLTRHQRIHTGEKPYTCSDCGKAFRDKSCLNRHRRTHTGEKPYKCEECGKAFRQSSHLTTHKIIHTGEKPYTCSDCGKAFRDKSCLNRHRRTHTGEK
F2638 (artificial (human zinc finger domains)), sequence (chain, as listed by the source): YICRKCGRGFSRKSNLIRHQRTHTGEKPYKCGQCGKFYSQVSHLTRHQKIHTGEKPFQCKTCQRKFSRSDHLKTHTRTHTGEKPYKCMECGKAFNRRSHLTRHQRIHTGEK
F2646 (artificial (human zinc finger domains)), sequence (chain, as listed by the source): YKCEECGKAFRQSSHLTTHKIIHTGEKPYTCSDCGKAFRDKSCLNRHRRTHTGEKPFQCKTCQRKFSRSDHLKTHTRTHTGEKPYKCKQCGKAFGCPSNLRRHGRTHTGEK
F2607 (artificial (human zinc finger domains)), sequence (chain, as listed by the source): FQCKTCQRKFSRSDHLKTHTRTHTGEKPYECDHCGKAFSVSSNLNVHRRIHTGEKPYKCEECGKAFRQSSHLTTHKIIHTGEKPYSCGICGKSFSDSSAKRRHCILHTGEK
F2604 (artificial (human zinc finger domains)), sequence (chain, as listed by the source): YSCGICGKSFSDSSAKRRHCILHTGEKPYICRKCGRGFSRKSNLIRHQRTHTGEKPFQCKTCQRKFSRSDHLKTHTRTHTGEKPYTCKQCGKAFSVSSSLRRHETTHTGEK
F2612 (artificial (human zinc finger domains)), sequence (chain, as listed by the source): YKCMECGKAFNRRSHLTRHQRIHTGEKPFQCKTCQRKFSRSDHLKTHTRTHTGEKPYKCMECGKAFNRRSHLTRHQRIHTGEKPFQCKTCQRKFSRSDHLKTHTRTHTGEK
F2650 (artificial (human zinc finger domains)), sequence (chain, as listed by the source): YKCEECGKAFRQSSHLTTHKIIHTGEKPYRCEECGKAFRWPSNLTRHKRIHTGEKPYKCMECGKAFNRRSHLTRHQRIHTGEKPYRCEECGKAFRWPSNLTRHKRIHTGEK
F2679 (artificial (human zinc finger domains)), sequence (chain, as listed by the source): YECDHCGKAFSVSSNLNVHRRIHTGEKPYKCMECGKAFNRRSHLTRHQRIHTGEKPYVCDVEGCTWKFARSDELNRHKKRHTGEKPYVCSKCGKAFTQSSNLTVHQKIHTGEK
F480 (artificial (human zinc finger domains)), sequence (chain, as listed by the source): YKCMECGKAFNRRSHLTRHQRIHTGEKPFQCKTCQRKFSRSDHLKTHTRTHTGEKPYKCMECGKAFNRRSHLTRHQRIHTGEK
F2644 (artificial (human zinc finger domains)), sequence (chain, as listed by the source): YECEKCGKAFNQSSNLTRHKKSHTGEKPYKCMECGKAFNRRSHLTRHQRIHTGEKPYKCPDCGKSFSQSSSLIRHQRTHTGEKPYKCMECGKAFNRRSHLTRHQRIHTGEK
F2634 (artificial (human zinc finger domains)), sequence (chain, as listed by the source): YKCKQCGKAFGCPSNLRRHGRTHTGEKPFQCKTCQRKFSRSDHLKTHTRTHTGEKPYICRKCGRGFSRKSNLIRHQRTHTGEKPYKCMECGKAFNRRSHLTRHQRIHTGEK
F475 (artificial (human zinc finger domains)), sequence (chain, as listed by the source): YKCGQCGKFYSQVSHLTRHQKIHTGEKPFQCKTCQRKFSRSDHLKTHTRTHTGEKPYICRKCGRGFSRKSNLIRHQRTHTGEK
F121 (artificial (human zinc finger domains)), sequence (chain, as listed by the source): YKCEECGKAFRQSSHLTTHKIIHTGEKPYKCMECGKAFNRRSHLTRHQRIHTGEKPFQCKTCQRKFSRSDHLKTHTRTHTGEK
F2605 (artificial (human zinc finger domains)), sequence (chain, as listed by the source): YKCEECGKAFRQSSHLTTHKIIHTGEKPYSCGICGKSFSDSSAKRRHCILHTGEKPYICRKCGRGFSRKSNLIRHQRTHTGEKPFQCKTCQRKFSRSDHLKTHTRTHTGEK
F2633 (artificial (human zinc finger domains)), sequence (chain, as listed by the source): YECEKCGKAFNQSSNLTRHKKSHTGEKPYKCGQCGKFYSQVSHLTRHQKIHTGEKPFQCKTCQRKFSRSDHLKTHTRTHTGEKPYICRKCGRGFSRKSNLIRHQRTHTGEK
F109-KRAB (artificial (human zinc finger domains)), sequence (chain, as listed by the source): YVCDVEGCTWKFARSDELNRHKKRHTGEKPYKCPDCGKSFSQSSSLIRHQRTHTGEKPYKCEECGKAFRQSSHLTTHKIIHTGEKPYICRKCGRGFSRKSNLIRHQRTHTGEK

B1: VEGF-A -606 (dsDNA)
DNA 1: GCCAGAGCCGGG
DNA 2: CCCGGCTCTGGC
Regarding B1, in the series with F2615, the activity stood at 2700.

B2: VEGF-A -633R (9 bp) (dsDNA)
DNA 1: GGGTGGGGG
DNA 2: CCCCCACCC
Take B2: the activity in the series with F480 is 3100.

B3: VEGF-A -677 (dsDNA)
DNA 1: TGGGAGGTCAGA
DNA 2: TCTGACCTCCCA
For the molecule B3, the activity with F2605 is 3700.

B4: VEGF-A -671 (dsDNA)
DNA 1: GTCAGAAATAGG
DNA 2: CCTATTTCTGAC
Regarding B4, the activity with F2607 came to 1600 pg/mL.

B5: VEGF-A -680 (dsDNA)
DNA 1: GTTTGGGAGGTC
DNA 2: GACCTCCCAAAC
As for B5, the activity in the series with F2604 is 1000.

B6: VEGF-A -391R (12 bp) (dsDNA)
DNA 1: GGGTGGGGAGAG
DNA 2: CTCTCCCCACCC
With B6, the activity in the series with F2638 was found to be 1900.

B7: VEGF-A -633R (12 bp) (dsDNA)
DNA 1: GGGTGGGGGGAG
DNA 2: CTCCCCCCACCC
As to B7, in the series with F2610, the activity stood at 2300.

B8: VEGF-A -358R (dsDNA)
DNA 1: GGGGCAGGGGAA
DNA 2: TTCCCCTGCCCC
On to B8, for which the activity with F2644 worked out at 4200.

B9: VEGF-A -536 (dsDNA)
DNA 1: GAGCGAGCAGCG
DNA 2: CGCTGCTCGCTC
Regarding B9, in the series with F109-KRAB, the activity came out at 6.1 fold repression.

B10: VEGF-A -630R (dsDNA)
DNA 1: AGGGGGTGGGGG
DNA 2: CCCCCACCCCCT
For B10, the activity with F2612 was found to be 2000 pg/mL.

B11: VEGF-A -206 (dsDNA)
DNA 1: GGTGGGGGTCGA
DNA 2: TCGACCCCCACC
Consider B11, for which the activity with F2650 came out at 4400.

B12: VEGF-A -455 (9 bp) (dsDNA)
DNA 1: GAGCGGGGA
DNA 2: TCCCCGCTC
As for B12, the activity with F475 is 4150.

B13: VEGF-A -314R (dsDNA)
DNA 1: GACAGGGCCTGA
DNA 2: TCAGGCCCTGTC
As for B13, the activity with F2646 worked out at 3400.

B14: VEGF-A -395R (dsDNA)
DNA 1: GGGGAGAGGGAC
DNA 2: GTCCCTCTCCCC
For B14, in the series with F2634, the activity turned out to be 2100.

B15: VEGF-A +434 (dsDNA)
DNA 1: TGGGGGTGA
DNA 2: TCACCCCCA
Turning to B15, the activity in the series with F121 came out at 1300 pg/mL; with F121-KRAB it was 8.7 fold repression.

B16: VEGF-A +244R (dsDNA)
DNA 1: CAAGTGGGGAAT
DNA 2: ATTCCCCACTTG
In the case of B16, in the series with F2679, the activity is 1500 pg/mL.

B17: VEGF-A -455 (12 bp) (dsDNA)
DNA 1: GAGCGGGGAGAA
DNA 2: TTCTCCCCGCTC
Consider B17, for which, in the series with F2633, the activity was 4500.

Values taken from patent US20050032186, “Regulatory zinc finger proteins” (published 2005).
